Data reported in US9969998B2, “Compositions of adenosine deaminase-2 (ADA2), variants thereof and methods of using same” (Halozyme, Inc., priority 2014, dated 2018).

Tests used:
[1] = Thermal stability by differential scanning fluorimetry (DSF); type: physicochemical; conditions: for Tm, melting temperature by DSF: 0.1-1 mg/mL protein
Procedure: The stability of the rHuADA2 WT and variants was measured by differential scanning fluorimetry (DSF) at increasing temperatures. DSF measures conformational stability, which correlates with thermal stability. The melting temperature (Tm) in DSF is defined as the midpoint of the protein unfolding transition.
Non-PEGylated WT rHuADA2, non-PEGylated rHuADA2 variants, and PEGylated forms of WT rHuADA2 and rHuADA2 variants were prepared at concentrations of 0.1-1 mg/mL and mixed with the ROX™ protein thermal shift dye (Applied Biosystems, Carlsbad, Calif.; Cat. No. 4461146) to a final dye concentration that corresponds to a 125-fold dilution of the stock ROX™ solution. Protein samples were then loaded into 96-well plate at a volume of 20 μL/well in triplicate. A ViiA7 RT-PCR System (Applied Biosystems, Carlsbad, Calif.) was used to measure the shift in fluorescence as the temperature of the samples were increased. The reactions were subjected to the following steps: incubation at 25° C. for 2 min; ramping of temperature from 25 to 99° C. at a rate of 0.05° C. per second; followed by a 99° C. incubation for 2 min. The wavelengths used for emission and excitation were 623 nanometers (nm) and 580 nm, respectively.

[2] = Kinetic assessment of adenosine deaminase activity (ammonia assay, Michaelis-Menten); type: biochemical; conditions: for kcat: kcat=Vmax/0.0085/60; for kinetics properties compared to WT: pH 7.6 and pH 6.5
How it was run: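 Coupled ammonia assay: rHuADA2 WT or variants (1 μg/mL, 17 nM in 2× mix) with adenosine 20 μM–20 mM, α-ketoglutarate, NADPH and GDH, at pH 7.6 or pH 6.5 (PIPES), room temperature. Michaelis-Menten fit gave Km, Vmax, kcat, kcat/Km.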

[3] = Adenosine deaminase (ADA) enzymatic activity assay kit; type: biochemical; conditions: for % of WT adenosine deaminase activity: Table 23; for % activity vs. WT: relative to rHuADA2 WT (Table 21); for Adenosine deaminase activity mU/ml / Adenosine deaminase activity ΔA/min / % of WT activity: purified protein at 5 μg/mL; for % of WT activity: compared to WT-ADA2
[4] = PEGylated and non-PEGylated forms (Table 23)
[5] = protein diluted to 5 μg/mL, serially diluted 2 fold (Table 21)

| Molecule | Tm, melting temperature by DSF [1] [°C] | Km ([2]; pH 6.5, [E] = 8.5 nM) [mM] | Vmax ([2]; pH 6.5, [E] = 8.5 nM) [µM/min] | kcat ([2]; pH 6.5, [E] = 8.5 nM) [s⁻¹] | Km ([2]; pH 7.6, [E] = 8.5 nM) [mM] | Vmax ([2]; pH 7.6, [E] = 8.5 nM) [µM/min] | kcat ([2]; pH 7.6, [E] = 8.5 nM) [s⁻¹] | kinetics properties compared to WT [2] | enzymatic activity relative to WT rHuADA2 [3] | adenosine deaminase activity mU/mL [3, 4] [mU/mL] | % of WT adenosine deaminase activity [3] [%] | adenosine deaminase activity mU/mL [3, 5] [mU/mL] | ΔA/min, adenosine deaminase activity [3, 5] | % activity vs. WT [3] [%] | Km ([2]; pH 6.5) [mM] | Km ([2]; pH 7.6) [mM] | Adenosine deaminase activity mU/ml [3] [mU/ml] | Adenosine deaminase activity ΔA/min [3] | % of WT activity [3] [%] | Tm higher than WT ADA2 [1] [°C] |
| --- | --- | --- | --- | --- | --- | --- | --- | --- | --- | --- | --- | --- | --- | --- | --- | --- | --- | --- | --- | --- |
| R23E: ADA2 variant SEQ ID NO:30 (protein, human ADA2 R20E, mature numbering) IDETRAHLLLKEKMMRLGGELVLNTKEELANERLMTLKIAEMKEAMRTLIFPPSMHFFQAKHLIERSQVFNILRMMPKGAALHLHDIGIVTMDWLVRNVTYRPHCHICFTPRGIMQFRFAHPTPRPSEKCSKWILLEDYRKRVQNVTEFDDSLLRNFTLVTQHPEVIYTNQNVVWSKFETIFFTISGLIHYAPVFRDYVFRSMQEFYEDNVLYMEIRARLLPVYELSGEHHDEEWSVKTYQEVAQKFVETHPEFIGIKIIYSDHRSKDVAVIAESIRMAMGLRIKFPTVVAGFDLVGHEDTGHSLHDYKEALMIPAKDGVKLPYFFHAGETDWQGTSIDRNILDALMLNTTRIGHGFALSKHPAVRTYSWKKDIPIEVCPISNQVLKLVSDLRNHPVATLMATGHPMVISSDDPAMFGAKGLSYDFYEVFMGIGGMKADLRTLKQLAMNSIKYSTLLESEKNTFMEIWKKRWDKFIADVATK | 65.2 | 3.29 | 37.16 | 72.86 | 5.06 | 29.08 | 57.02 | improved kinetics properties compared to WT | improved enzymatic activity | 129.9 | 106.8 | 161.6 | 70.2 | 207.1 |  |  |  |  |  |  |
| S265N: ADA2 variant SEQ ID NO:54 (protein, human ADA2 S262N, mature numbering) IDETRAHLLLKEKMMRLGGRLVLNTKEELANERLMTLKIAEMKEAMRTLIFPPSMHFFQAKHLIERSQVFNILRMMPKGAALHLHDIGIVTMDWLVRNVTYRPHCHICFTPRGIMQFRFAHPTPRPSEKCSKWILLEDYRKRVQNVTEFDDSLLRNFTLVTQHPEVIYTNQNVVWSKFETIFFTISGLIHYAPVFRDYVFRSMQEFYEDNVLYMEIRARLLPVYELSGEHHDEEWSVKTYQEVAQKFVETHPEFIGIKIIYNDHRSKDVAVIAESIRMAMGLRIKFPTVVAGFDLVGHEDTGHSLHDYKEALMIPAKDGVKLPYFFHAGETDWQGTSIDRNILDALMLNTTRIGHGFALSKHPAVRTYSWKKDIPIEVCPISNQVLKLVSDLRNHPVATLMATGHPMVISSDDPAMFGAKGLSYDFYEVFMGIGGMKADLRTLKQLAMNSIKYSTLLESEKNTFMEIWKKRWDKFIADVATK | 60.8 | 1.49 | 45.79 | 89.78 | 3.02 | 80.49 | 157.82 |  |  |  |  |  |  |  | 1.49 | 3.02 | 164.8 | 71.7 ΔA/min | 211 |  |
| K374E: ADA2 variant SEQ ID NO:21 (protein, human ADA2 K371E, mature numbering) IDETRAHLLLKEKMMRLGGRLVLNTKEELANERLMTLKIAEMKEAMRTLIFPPSMHFFQAKHLIERSQVFNILRMMPKGAALHLHDIGIVTMDWLVRNVTYRPHCHICFTPRGIMQFRFAHPTPRPSEKCSKWILLEDYRKRVQNVTEFDDSLLRNFTLVTQHPEVIYTNQNVVWSKFETIFFTISGLIHYAPVFRDYVFRSMQEFYEDNVLYMEIRARLLPVYELSGEHHDEEWSVKTYQEVAQKFVETHPEFIGIKIIYSDHRSKDVAVIAESIRMAMGLRIKFPTVVAGFDLVGHEDTGHSLHDYKEALMIPAKDGVKLPYFFHAGETDWQGTSIDRNILDALMLNTTRIGHGFALSKHPAVRTYSWEKDIPIEVCPISNQVLKLVSDLRNHPVATLMATGHPMVISSDDPAMFGAKGLSYDFYEVFMGIGGMKADLRTLKQLAMNSIKYSTLLESEKNTFMEIWKKRWDKFIADVATK | 69.7 | 3.18 | 41.93 | 82.22 | 4.77 | 35.13 | 68.88 | improved kinetics properties compared to WT | improved enzymatic activity |  |  | 313.8 | 136.5 | 402.3 |  |  |  |  |  | 1.4 |
| PEG-K374D: rHuADA2-K374D (SEQ ID NO:20) PEGylated on surface exposed lysines with linear PEG-20K (conjugate, linear PEG-20K on surface lysines; human ADA2 K371D, mature numbering) IDETRAHLLLKEKMMRLGGRLVLNTKEELANERLMTLKIAEMKEAMRTLIFPPSMHFFQAKHLIERSQVFNILRMMPKGAALHLHDIGIVTMDWLVRNVTYRPHCHICFTPRGIMQFRFAHPTPRPSEKCSKWILLEDYRKRVQNVTEFDDSLLRNFTLVTQHPEVIYTNQNVVWSKFETIFFTISGLIHYAPVFRDYVFRSMQEFYEDNVLYMEIRARLLPVYELSGEHHDEEWSVKTYQEVAQKFVETHPEFIGIKIIYSDHRSKDVAVIAESIRMAMGLRIKFPTVVAGFDLVGHEDTGHSLHDYKEALMIPAKDGVKLPYFFHAGETDWQGTSIDRNILDALMLNTTRIGHGFALSKHPAVRTYSWDKDIPIEVCPISNQVLKLVSDLRNHPVATLMATGHPMVISSDDPAMFGAKGLSYDFYEVFMGIGGMKADLRTLKQLAMNSIKYSTLLESEKNTFMEIWKKRWDKFIADVATK | 67.81 |  |  |  |  |  |  |  |  | 142 | 116.8 |  |  |  |  |  |  |  |  |  |
| WT ADA2: wild type recombinant human adenosine deaminase 2 with FLAG tag, mature ADA2 SEQ ID NO:5 (protein, listed as Homo sapiens, FLAG tag; ADA2 mature protein) IDETRAHLLLKEKMMRLGGRLVLNTKEELANERLMTLKIAEMKEAMRTLIFPPSMHFFQAKHLIERSQVFNILRMMPKGAALHLHDIGIVTMDWLVRNVTYRPHCHICFTPRGIMQFRFAHPTPRPSEKCSKWILLEDYRKRVQNVTEFDDSLLRNFTLVTQHPEVIYTNQNVVWSKFETIFFTISGLIHYAPVFRDYVFRSMQEFYEDNVLYMEIRARLLPVYELSGEHHDEEWSVKTYQEVAQKFVETHPEFIGIKIIYSDHRSKDVAVIAESIRMAMGLRIKFPTVVAGFDLVGHEDTGHSLHDYKEALMIPAKDGVKLPYFFHAGETDWQGTSIDRNILDALMLNTTRIGHGFALSKHPAVRTYSWKKDIPIEVCPISNQVLKLVSDLRNHPVATLMATGHPMVISSDDPAMFGAKGLSYDFYEVFMGIGGMKADLRTLKQLAMNSIKYSTLLESEKNTFMEIWKKRWDKFIADVATK | 67.1 | 3.66 | 31.81 | 62.37 | 5.25 | 26.09 | 51.16 |  |  | 121.6 | 100 | 78 | 33.9 | 100 | 3.66 | 5.25 | 78 | 33.9 ΔA/min | 100 |  |
| K374D: ADA2 variant SEQ ID NO:20 (protein, human ADA2 K371D, mature numbering) IDETRAHLLLKEKMMRLGGRLVLNTKEELANERLMTLKIAEMKEAMRTLIFPPSMHFFQAKHLIERSQVFNILRMMPKGAALHLHDIGIVTMDWLVRNVTYRPHCHICFTPRGIMQFRFAHPTPRPSEKCSKWILLEDYRKRVQNVTEFDDSLLRNFTLVTQHPEVIYTNQNVVWSKFETIFFTISGLIHYAPVFRDYVFRSMQEFYEDNVLYMEIRARLLPVYELSGEHHDEEWSVKTYQEVAQKFVETHPEFIGIKIIYSDHRSKDVAVIAESIRMAMGLRIKFPTVVAGFDLVGHEDTGHSLHDYKEALMIPAKDGVKLPYFFHAGETDWQGTSIDRNILDALMLNTTRIGHGFALSKHPAVRTYSWDKDIPIEVCPISNQVLKLVSDLRNHPVATLMATGHPMVISSDDPAMFGAKGLSYDFYEVFMGIGGMKADLRTLKQLAMNSIKYSTLLESEKNTFMEIWKKRWDKFIADVATK | 66.8 | 3.16 | 42.98 | 84.27 | 4.88 | 28.25 | 55.39 | improved kinetics properties compared to WT | improved enzymatic activity | 162.9 | 134 | 269.8 | 117.3 | 345.9 |  |  |  |  |  |  |
